# Reference: patent US20170275344A1, “POLYPEPTIDES AND USES THEREOF AS A DRUG FOR TREATMENT OF AUTOIMMUNE DISORDERS” (Compugen Ltd., priority 2014, published 2017)
# B1: C1ORF32 ECD-Fc (SEQ ID NO:42): fusion protein of human C1ORF32 ECD fused to mouse immunoglobulin Fc (human-mouse fusion protein) (protein)
# chain: LQVTVPDKKKVAMLFQPTVLRCHFSTSSHQPAVVQWKFKSYCQDRMGESLGMSSTRAQSLSKRNLEWDPYLDCLDSRRTVRVVASKQGSTVTLGDFYRGREITIVHDADLQIGKLMWGDSGLYYCIITTPDDLEGKNEDSVELLVLGRTGLLADLLPSFAVEIMGSENLYFQGSGEPRGPTIKPCPPCKCPAPNLLGGPSVFIFPPKIKDVLMISLSPIVTCVVVDVSEDDPDVQISWFVNNVEVHTAQTQTHREDYNSTLRVVSALPIQHQDWMSGKEFKCKVNNKDLPAPIERTISKPKGSVRAPQVYVLPPPEEEMTKKQVTLTCMVTDFMPEDIYVEWTNNGKTELNYKNTEPVLDSDGSYFMYSKLRVEKKNWVERNSYSCSVVHEGLHNHHTTKSFSRTPGK
# modifications: Fusion protein human C1ORF32-ECD fused to mouse IgG2a Fc
# What was measured:
# SJL/J mice = test: BBB breakdown and inflammation by fluorescence molecular tomography in adoptive transfer R-EAE; type: in vivo, mouse; conditions: Day +30, treatment from onset of remission
# Procedure: […] At the time of imaging mice were anesthetized by administration of sodium pentobarbital (50 mg/kg) and then imaged using the FMT 2500 fluorescence molecular tomography in vivo imaging system. The data is presented as pmol of CathepsinB or AngioSense present within the brain (B) or spinal cord (C).
# Commercially available near infrared (NIR) imaging agents were used to perform tomographic imaging (PerkinElmer Inc., Boston, Mass.). […] For the in vivo imaging, mice were injected intravenously with 4 nmol of NIR fluorescent agent 24 hrs prior to imaging, and imaged following the last treatment with Control Ig or C1ORF32 ECD-Fc (SEQ ID NO: 42) (Day +30 post-PLP139-151 blast cell transfer). At the time of imaging, mice were anesthetized by administration of sodium pentobarbital (50 mg/kg) and then imaged using the FMT 2500 fluorescence molecular tomography in vivo imaging system (PerkinElmer Inc., Boston, Mass.). […] Appropriate optical filters allowed the collection of both fluorescence and excitation datasets, and the multiple source-detector fluorescence projections were normalized to the paired collection of laser excitation data. […] The total amount of fluorescence (in pmoles) in different organ sites was automatically calculated relative to internal standards generated with known concentrations of appropriate FR/NIR dyes. […]
# total splenocytes = test: Ex vivo recall responses of splenocytes, week 8 post bone marrow transplant; type: cell-based, mouse
# Procedure: (§1) On week 8 post bone marrow cell transplantion, total splenocytes (5×10^5 cells/well) were cultured in the presence of medium alone (no stimulation), anti-CD3 (1 ug/ml), DBY peptide (10 ug/ml), irradiated male splenocytes (5×10^5 cells/well), or irradiated female splenocytes (5×10^5 cells/well). The individual splenocyte samples were cultured separately in triplicate wells. For T cell proliferative response, the cultures were pulsed with 1 uCi of tritiated thymidine at 24 hours and harvested at 72 hours post culture initiation. The statistical analysis carried out on the data is one-way ANOVA followed by Dunnett's post test as compared to the mice receiving male CD45.1+ bone marrow cells plus Control Ig treatment, p-values*<0.05, **<0.01,***<0.001, and #<0.0001.
# as §1, with “transplant,” for “transplantion,”, “For” for “For T cell proliferative response,”, “cytokine cultures, the supernatants” for “cultures”, “collected” for “pulsed with 1 uCi of tritiated thymidine at 24 hours and harvested”, “initiation and the level of secreted cytokine was determined via LiquiChip.” for “initiation.”
# These same populations of cells were analyzed at week 8 within the spleen. In addition, the proliferative and secreted cytokine responses of total splenocytes in ex vivo recall cultures were tested in the presence of medium alone, anti-CD3 (1 ug/ml), the HY antigen DBY peptide (NAGFNSNRANSSRSS; Genemed Synthesis; San Antonio, Tex.) (10 ug/ml), irradiated male splenocytes (1:1 ratio), or irradiated female splenocytes (1:1 ratio).
# NOD mice = test: Type 1 diabetes incidence in NOD mice (blood glucose monitoring); type: in vivo, mouse; conditions: for mice that developed T1D: 100 ug/dose
# Procedure: The effect of C1ORF32 ECD-Fc treatment on modulation of disease incidence was tested in NOD mice, which spontaneously develop a T1D disease. In NOD mice, autoreactive CD4+ can be observed within the β-islets as early as 2 weeks of age (Yang et al., Immunity 1996 February; 4(2):189-94), and by 10 weeks of age, when the treatment with C1ORF32 ECD-Fc (SEQ ID NO: 42) began in the present experiments, NOD mice develop peri-insulitis and β-cell loss (Jimeno et al., Immunology and Cell Biology. (2010) 88, 734-745).
# Materials: C1ORF ECD-Fc (SEQ ID NO:42) was used in these studies, as described below. Control Ig was mouse IgG2a from BioXcell (Cat# BE0085). NOD mice were purchased from Jackson labs, and blood glucose was measured via sampling a small drop of blood from the tail vein.
# Methods: Six week old NOD mice were purchased from Jackson labs. At 10 weeks of age, mice were split into groups and treated with either vehicle (PBS) Control Ig or C1ORF ECD-Fc (SEQ ID NO:42) as detailed below. Treatment was given via IP injections 3×/wk/2 wks. Blood glucose levels were monitored weekly from 8 weeks of age until the mice reached […] of age as detailed below. Mice were considered diabetic upon having two consecutive blood glucose readings of >250 mg/dL. Diabetic mice were sacrificed on the day of the second high glucose level reading. Blood glucose levels were obtained from the tail vein, and the level of blood glucose measured via use of a OneTouch. UltraSmart. Blood Glocuse Monitoring System (OneTouch; Johnson & Johnson; New Brunswick, N.J.) in a blinded manner. This study was carried out 3 times; For study 3 proteins were provided coded.
# Treatment groups (n=5 mice/group): 1. Control Ig (mouse IgG2a), 100 ug/dose 2. C1ORF ECD-Fc (SEQ ID NO:42), 100 ug/dose.
# Treatment groups (n=14-15): 1. Control Ig (mouse IgG2a; BioXcell) (100 ug/dose) 2. C1ORF ECD-Fc (SEQ ID NO:42) (100 ug/dose)
# [1] = combined data from all 3 studies
molecule,measurement,setting,value
B1,monocyte/macrophage activity in the brain and spinal cord (lysosomal CathepsinB activity),SJL/J mice,reduced lysosomal CathepsinB activity; however this effect did not reach statistical significance
same,vascular leakage in the brain and spinal cord (AngioSense720 levels),SJL/J mice; significant,decreased vascular leakage
same,"inflammatory cytokines (IFN-gamma, IL-17, GM-CSF, IL-12, IL-2 and TNF-alpha)","total splenocytes; activation with male irradiated splenocytes or DBY peptide, vs Ig control treated mice",significantly lower levels
same,"IFNg, IL-17, IL-2, IL-12 and GM-CSF secretion",total splenocytes; cultures stimulated with male irradiated splenocytes,inhibitory trend
same,level of IL-10 and IL-4 secreted,"total splenocytes; splenocytes of treated mice, in response to male or female splenocytes",significantly increased
same,mice prevented from developing full blown autoimmune diabetes,"NOD mice; NOD mice, overall statement",77%
same,mice that did not develop T1D,"NOD mice; Study I, n=5, 100 ug/dose IP 3x/wk for 2 wks from 10 wks of age",3 out of 5
same,mice that developed T1D,"NOD mice; Study II, n=6",1 out of 6
same,mice that developed T1D,"NOD mice; Study III, n=14-15, by the age of 24 weeks",3 out of 15
same,mice in which T1D was observed,NOD mice; [1],6 out of 26
same,percent of mice in which T1D was observed,NOD mice; [1],23%
